From the supplement of paper PMC10567573 come the findings set out here.

± gives the standard deviation.

The series can be described thus: protein stability index of a GFP-peptide fusion (GPS, HEK-293T) (PSI 1-6); higher = more stable. To be noted: c terminus: a fixed tail appended.
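Further: 24-mer peptide tiles fused after GFP, lentivirally expressed, FACS-sorted into six equal bins by GFP/DsRed ratio, decoded by Illumina sequencing, PSI is the read-weighted mean bin number.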

On to CHRRYSCAHCRAHLANHDDLISKS [YPEL3], for which the protein stability index was found to be 2.44 ± 0.46 (treatment: DMSO) and 2.81 ± 0.4 (treatment: MLN4924 1 uM, 8 h).
For CHSHTVVQDYSYFFFLRMDENYNL [CCDC3], the protein stability index by setting is: (treatment: DMSO) 2.49 ± 0.68; (treatment: MLN4924 1 uM, 8 h) 2.4 ± 0.63.
The like results for CIMDDAINILQNEKSHQVLAQLLD [INTS4] were, in that order, 2.18 ± 0.21 and 2.37 ± 0.23.
The like results for CIQQILEAVLHCHQMGVVHRDLKP [CAMK2A] were, in that order, 2.75 ± 0.32 and 3.03 ± 0.36.
The like results for CKICGRTFFPVALKKHGPICQKTA [ZC2HC1A] were, in that order, 3.58 ± 0.063 and 3.92 ± 0.38.
As to CLAHLGEKVSQELKEPLHKALQML [BCL2L13], the protein stability index turned out to be 2.26 ± 0.28 (treatment: DMSO) and 2.16 ± 0.26 (treatment: MLN4924 1 uM, 8 h).
With CPPPPGPAAAPEGDWARLLEQMGA [ZBED3], the protein stability index was determined as 3.53 ± 0.18 (treatment: DMSO) and 3.58 ± 0.84 (treatment: MLN4924 1 uM, 8 h).
With CQVFPERLAQGNPQQGFFSSFFTC [ATP23], the protein stability index runs as follows: (treatment: DMSO) 2.07 ± 0.29; (treatment: MLN4924 1 uM, 8 h) 2.14 ± 0.33.
The like results for CRADHGLLLERAAAGSPRSPGPLP [ISL2] were, in that order, 3.47 ± 0.46 and 3.1 ± 0.43.
For the sequence CRGHTLERSVFSERTEESSAVQYF [CARM1], the protein stability index is 2.81 ± 0.34 (treatment: DMSO) and 2.92 ± 0.5 (treatment: MLN4924 1 uM, 8 h).
Regarding CRGNQHDVPVIPLDVVDNQTEKLD [CASP6], the protein stability index reads like this: (treatment: DMSO) 5.05 ± 0.26; (treatment: MLN4924 1 uM, 8 h) 5.03 ± 0.13.
For the sequence CRNGSSIQIAFEEVPQLPPRASIS [C2CD2L], the protein stability index is 3.03 ± 0.34 (treatment: DMSO) and 2.98 ± 0.16 (treatment: MLN4924 1 uM, 8 h).
Regarding CSMSATFTLNFFRSGIQFGSWGSF [CLCN6], the protein stability index was 3.01 ± 0.57 (treatment: DMSO) and 2.75 ± 0.14 (treatment: MLN4924 1 uM, 8 h).
The like results for CTEGPIDLVFVIDGSKSLGEENFE [MATN2] were, in that order, 2.72 ± 0.29 and 2.52 ± 0.59.
With CTGLKKAHRTEFYRNLTHNPPSDF [STK38L], the protein stability index turned out to be 2.85 ± 0.09 (treatment: DMSO) and 2.87 ± 0.28 (treatment: MLN4924 1 uM, 8 h).
CTRDCMSFSVLNWDQVSRLHEVLT [TENT5C] registered a protein stability index (treatment: DMSO) of 2.13 ± 0.35 and a protein stability index (treatment: MLN4924 1 uM, 8 h) of 2.37 ± 0.23.
As for CVTLMQGHEGSVSSCHFARDSSFL [WDR88], the protein stability index was 2.28 ± 0.57 (treatment: DMSO) and 2.39 ± 0.13 (treatment: MLN4924 1 uM, 8 h).
Regarding CYRSQDYGGRSVAPQNSFSAKLAP [KCNK9], the protein stability index came to 3.04 ± 0.092 (treatment: DMSO) and 3.19 ± 0.36 (treatment: MLN4924 1 uM, 8 h).
The like results for DAAVVRPGFLSTAEEETLSRELEP [ALKBH7] were, in that order, 5.53 ± 0.063 and 5.42 ± 0.17.
The like results for DAAYRKALDLAREFLPQGPVAMRV [AUH] were, in that order, 2.25 ± 0.64 and 2.19 ± 0.33.
As to DAGGIPRTAQSEETRVWHRRDGKW [CAMK2A], the protein stability index is, setting by setting: (treatment: DMSO) 4.92 ± 0.13; (treatment: MLN4924 1 uM, 8 h) 4.86 ± 0.1.
The like results for DCLLCFPETLPESSLFSVEANSSN [C8orf76] were, in that order, 3.58 ± 0.29 and 3.58 ± 0.6.
The like results for DDLTVVDAASLRRQIIKLNRRLQL [MFF] were, in that order, 2.49 ± 0.27 and 2.9 ± 0.65.
The like results for DDRNTACHHGLVADSLQASMEKDA [DLC1] were, in that order, 5.15 ± 0.13 and 5.16 ± 0.16.
For the sequence DDYPSRGYSDRDGYGRDRDYSDHP [RBMX], the protein stability index is, setting by setting: (treatment: DMSO) 4.85 ± 0.3; (treatment: MLN4924 1 uM, 8 h) 4.87 ± 0.22.
Consider DEKYSIEPSWECKFDHIEVRDGPF [NETO1], for which the protein stability index is 3.78 ± 0.35 (treatment: DMSO) and 3.9 ± 0.17 (treatment: MLN4924 1 uM, 8 h).
Turning to DETHPYTVTSVSCCHGNTLLAVRS [NEK8], the protein stability index reads like this: (treatment: DMSO) 2.47 ± 0.12; (treatment: MLN4924 1 uM, 8 h) 2.67 ± 0.076.
Consider DEVQIGPETVMTTLYTAKKYAVPA [BTBD1], for which the protein stability index was determined as 3.67 ± 0.32 (treatment: DMSO) and 3.55 ± 0.41 (treatment: MLN4924 1 uM, 8 h).
The like results for DFLIHPPERSDLTLYLIVALATVS [PCDHGC5] were, in that order, 2.75 ± 0.41 and 2.44 ± 0.25.
For the sequence DGASVNENHEIYMKDSMSAAEVGT [EPB41L3], the protein stability index amounted to 5.31 ± 0.28 (treatment: DMSO) and 5.34 ± 0.32 (treatment: MLN4924 1 uM, 8 h).
The like results for DGENVFTGQSKIYSYMSPNKCSGM [KMT5A] were, in that order, 3.3 ± 0.29 and 3.3 ± 0.14.
The like results for DGKGKINKEYIKRLLMSQADKMTA [MYL5] were, in that order, 2.97 ± 0.25 and 3.13 ± 0.33.
Turning to DGKLSFEEFKAYFADGVLSGEELH [NECAB1], the protein stability index is, setting by setting: (treatment: DMSO) 4.23 ± 0.28; (treatment: MLN4924 1 uM, 8 h) 4.14 ± 0.37.
On to DGTGASQEPPTTDSQEAQSPGHSS [TOR1AIP2], for which the protein stability index by setting is: (treatment: DMSO) 5.56 ± 0.26; (treatment: MLN4924 1 uM, 8 h) 5.54 ± 0.24.
The like results for DHEDNDKMNDSEGMDPERLKAFNM [NOL4L] were, in that order, 5.46 ± 0.12 and 5.34 ± 0.34.
As to DIVLMAQALEKIFLQKVAQMPQEE [BRD3], the protein stability index by setting is: (treatment: DMSO) 2.36 ± 1.6; (treatment: MLN4924 1 uM, 8 h) 3 ± 1.
The like results for DIVWGKIHGFPWWPARVLDISLGQ [PWWP2B] were, in that order, 2.7 ± 0.86 and 2.38 ± 0.42.
The like results for DKLRALKSQRQPRTSPSCAFRSDD [CDC14A] were, in that order, 4.14 ± 0.23 and 4.15 ± 0.11.
With DKNVQVVELPIVDSLHPRPPYLPL [FUT8], the protein stability index reads like this: (treatment: DMSO) 3.2 ± 0.29; (treatment: MLN4924 1 uM, 8 h) 3.35 ± 0.28.
The like results for DLLTFVQNLCKGLSQPTTNLVAGC [NEUROD6] were, in that order, 3 ± 1 and 2.47 ± 0.33.
The like results for DLYALKSVKIPVRNHGILMETHKE [LYSMD4] were, in that order, 3.02 ± 0.14 and 3.25 ± 0.12.
In the case of DMCMKVPDDPEHLAARRQWRDECL [CRYL1], the protein stability index came to 4.47 ± 0.22 (treatment: DMSO) and 4.56 ± 0.2 (treatment: MLN4924 1 uM, 8 h).
Take DMLLEKLPQVAEEISGPLTSANKI [FLOT1]: the protein stability index stood at 4.15 ± 0.19 (treatment: DMSO) and 4.43 ± 0.16 (treatment: MLN4924 1 uM, 8 h).
The like results for DMSIGGNLSKTQNMERFGEDNLED [CDC14A] were, in that order, 5.27 ± 0.14 and 5.34 ± 0.21.
The like results for DMVEFLLEQCSASIEVGGSVNFDG [FEM1C] were, in that order, 2.17 ± 0.76 and 2.4 ± 0.24.
Sequence DPGADSEKSTVVEGGEVRFNGKGK [DLX1] had a protein stability index (treatment: DMSO) of 5.51 ± 0.22 and a protein stability index (treatment: MLN4924 1 uM, 8 h) of 5.58 ± 0.18.
The like results for DPIIDSWEVVTSMGTQRCDAGVCV [KLHL12] were, in that order, 3 ± 0.21 and 2.95 ± 0.39.
DPQILQMLKEEHQIILENQKNFGL [RAD54B]: the protein stability index stood at 3.25 ± 0.3 (treatment: DMSO) and 3.812 ± 0.008 (treatment: MLN4924 1 uM, 8 h).
The like results for DQNRDGFIDKEDLKDTYASLGKTN [MYL5] were, in that order, 5.12 ± 0.092 and 5.2 ± 0.14.
The like results for DSAQFTKALAIILHLLYLLEKVEC [FEM1A] were, in that order, 2.22 ± 0.33 and 2.11 ± 0.34.
On to DSEQVPQALRRLRPRTRKVKSVSP [NCF4], for which the protein stability index is 5.21 ± 0.25 (treatment: DMSO) and 5.11 ± 0.24 (treatment: MLN4924 1 uM, 8 h).
Regarding DSKSLKTHQTQPGIRRARDKALSG [NET1], the protein stability index came out at 4.63 ± 0.16 (treatment: DMSO) and 4.7 ± 0.18 (treatment: MLN4924 1 uM, 8 h).
The like results for DSPSKEEVFRFVQSCARAVVPSYI [CPOX] were, in that order, 2.48 ± 0.55 and 2.5 ± 0.32.
